Results on two molecules are retold here after patent US8987424B2, “CA6 antigen-specific cytotoxic conjugate and methods of using the same” (ImmunoGen, Inc., priority 2003, dated 2015).

One data set relates to OVCAR5 IP tumors. The data set is described as follows: Intraperitoneal OVCAR5 tumor model. The data set is classed as in vivo, SCID mice. Conditions: 600 μg/kg DM1 weekly for 2 weeks. Here is the method:
Tumor cells were injected intraperitoneally on day 0, and immunoconjugate treatments were given on day 6 and 13. Animals were euthanized once body weight loss exceeded 20%.
Human ovarian cancer is largely a disease of the peritoneum. OVCAR5 cells grow aggressively as an intraperitoneal (IP) model in SCID mice forming tumor nodules and producing ascites in a manner similar to human disease. […] OVCAR5 cells were grown in vitro, harvested and 1×10^7 cells in 100 μL of serum free medium were injected intraperitoneally. Tumors were allowed to grow for 6 days at which time treatment was initiated. Mice were treated weekly for 2 weeks with either PBS or DS6-DM1 conjugate at a dose of 600 μg/kg DM1 and monitored for weight loss resulting from peritoneal disease. By day 28, the PBS group of mice had lost greater than 20% body weight and were euthanized. The treated group was sacrificed at day 45 after exceeding 20% body weight loss.

The test system of another data set is MDA-MB-157 cells. The data set is described as follows: Flow cytometry binding assay. On the set-up: species or system human. As to the method: (§1) Flow cytometric analysis was used to localize the DS6 epitope, CA6, to the cell surface. Human cell lines were obtained from the American Type Culture Collection (ATCC) with the exception of OVCAR5 (Kearse et al., Int. J. Cancer 88(6):866-872 (2000)), OVCAR8 and IGROV1 cells (M. Seiden, Massachusetts General Hospital). All cells were grown in RPMI 1640 supplemented with 4 mM L-glutamine, 50 U/ml penicillin, 50 μg/ml streptomycin (Cambrex Bio Science, Rockland, Me.) and 10% v/v fetal bovine serum (Atlas Biologicals, Fort Collins, Colo.), referred hereafter as culture media. Cells were maintained in a 37° C., 5% CO2 humidified incubator.
(§2) Cells ([…]) were incubated, on ice for 3-4 h, with serially diluted concentrations of the DS6 antibody prepared in FACS buffer (2% goat serum, RPMI) into 96-well plates. The cells were spun down in a table top centrifuge at 1500 rpm for 5 min at 4° C. After removing the media, the wells were then refilled with 150 μl of FACS buffer. The wash step was then repeated. FITC-labeled goat anti-mouse IgG (Jackson Immunoresearch) was diluted 1:100 to FACS buffer and incubated with the cells for 1 h on ice. The plate was covered in foil to prevent photobleaching of the signal. After two washes, the cells were fixed with 1% formaldehyde and analyzed on a flow cytometer.

The test system of another data set is ZR-75-1 cells. The data set is described as follows: Flow cytometry binding assay. On the set-up: species or system human. As to the method:
as §1, §2
On the technique in general: Flow cytometry measures light scatter and fluorescence of single cells or particles in a stream.

A further data set has as its system HPAF-II cells. The data set is described as follows: Flow cytometry binding assay. On the set-up: species or system human. As to the method:
as §1, §2

The next data set deals with MDA-MB-231 cells. Description: Flow cytometry binding assay. More on the design: species or system human. As to the method:
as §1, §2

The subject of the next data set is BxPC-3 cells. Description: Flow cytometry binding assay. On the set-up: species or system human. As to the method:
as §1, §2

For a further data set, the system named is BT-549 cells. Description: Flow cytometry binding assay. More on the design: species or system human. As to the method:
as §1, §2

Another data set relates to KLE cells. The data set is described as follows: Flow cytometry binding assay. On the set-up: species or system human. As to the method:
as §1, §2

The subject of a further data set is SK-OV-3 cells. Description: Flow cytometry binding assay. More on the design: species or system human. Here is the method: as §1, §2
A further data set deals with OVCAR5 cells. The data set is described as follows: Flow cytometry binding assay. More on the design: species or system human. Here is the method: as §1, §2
Another data set deals with SW1990 cells. Description: Flow cytometry binding assay. On the set-up: species or system human. Here is the method: as §1, §2
For the next data set, the system named is OVCAR-3 cells. The data set is described as follows: Flow cytometry binding assay. More on the design: species or system human. Conditions: OVCAR3. As to the method:
as §1, §2

For another data set, the system named is BT-20 cells. Description: Flow cytometry binding assay. More on the design: species or system human. Here is the method: as §1, §2
The test system of a further data set is TOV-21G cells. Description: Flow cytometry binding assay. More on the design: species or system human. Here is the method:
as §1, §2

In the next data set the test system is MCF-7 cells. The data set is described as follows: Flow cytometry binding assay. On the set-up: species or system human. As to the method: as §1, §2
The subject of the next data set is Hs766T cells. Description: Flow cytometry binding assay. On the set-up: species or system human. Here is the method: as §1, §2
Another data set has as its system T-47D cells. Description: Flow cytometry binding assay. On the set-up: species or system human. Here is the method:
as §1, §2

The subject of another data set is Colo205 cells. Description: Flow cytometry binding assay. Conditions: Colo205, antigen negative cell line. On the set-up: species or system human. As to the method: as §1, §2
In another data set the test system is PC-3 cells. The data set is described as follows: Flow cytometry binding assay. On the set-up: species or system human. As to the method:
as §1, §2

The next data set concerns HPAC cells. The data set is described as follows: Flow cytometry binding assay. More on the design: species or system human. Here is the method:
as §1, §2

A further data set concerns CAMA-1 cells. Description: Flow cytometry binding assay. On the set-up: species or system human. As to the method: as §1, §2
The subject of another data set is MDA-MB-468 cells. The data set is described as follows: Flow cytometry binding assay. On the set-up: species or system human. Here is the method:
as §1, §2

A further data set has as its system WISH cells. The data set is described as follows: Flow cytometry binding assay. On the set-up: species or system human. Here is the method: as §1, §2
A further data set relates to T98G cells. Description: Flow cytometry binding assay. On the set-up: species or system human. Here is the method:
as §1, §2

The subject of a further data set is BT-483 cells. Description: Flow cytometry binding assay. On the set-up: species or system human. As to the method: as §1, §2
Another data set relates to SU.86.86 cells. Description: Flow cytometry binding assay. More on the design: species or system human. Here is the method: as §1, §2
A further data set concerns Caov-4 cells. The data set is described as follows: Flow cytometry binding assay. On the set-up: species or system human. Here is the method: as §1, §2

B1: DS6-DM1: muDS6 antibody modified with SPP and conjugated to the maytansinoid DM1 (conjugate)
VH: QAYLQQSGAELVRSGASVKMSCKASGYTFTSYNMHWVKQTPGQGLEWIGYIYPGNGATNYNQKFKGKATLTADPSSSTAYMQISSLTSEDSAVYFCARGDSVPFAYWGQGTLVTVSA
VL: QIVLTQSPAIMSASPGEKVTITCSAHSSVSFMHWFQQKPGTSPKLWIYSTSSLASGVPARFGGSGSGTSYSLTISRMEAEDAATYYCQQRSSFPLTFGAGTKLELKR
For B1, in the data set on OVCAR5 IP tumors, the “tumor growth delay (in words)” value is “able to delay tumor growth” and the “visible signs of toxicity” value was “no visible signs of toxicity”. Moreover, the “day of sacrifice after exceeding 20% body weight loss” value in the data set on OVCAR5 IP tumors (PBS group day 28) was found to be 45 days.

B2: DS6: murine anti-CA6 monoclonal antibody DS6 (ATCC deposit number PTA-4449) (antibody, V domains shown)
VH: QAYLQQSGAELVRSGASVKMSCKASGYTFTSYNMHWVKQTPGQGLEWIGYIYPGNGATNYNQKFKGKATLTADPSSSTAYMQISSLTSEDSAVYFCARGDSVPFAYWGQGTLVTVSA
VL: QIVLTQSPAIMSASPGEKVTITCSAHSSVSFMHWFQQKPGTSPKLWIYSTSSLASGVPARFGGSGSGTSYSLTISRMEAEDAATYYCQQRSSFPLTFGAGTKLELKR
For B2, the “MMF (average maximum relative mean fluorescence)” value was determined as 8.635 in the data set on MDA-MB-157 cells; 811.67 with ZR-75-1 cells; 266.50 in the data set with HPAF-II cells; 31.85 in the data set with MDA-MB-231 cells; 79.99 in the data set on BxPC-3 cells; 71.39 with BT-549 cells. Further, the “MMF (average maximum relative mean fluorescence)” value in the data set with OVCAR5 cells is 97.10; in the data set with SW1990 cells, 36.17; with BT-20 cells it was 232.20; in the data set with TOV-21G cells it was 87.79; in the data set on MCF-7 cells it was 81.41; in the data set with Hs766T cells it was 182.90. Besides, the “MMF (average maximum relative mean fluorescence)” value with T-47D cells turned out to be 559.58; in the data set with PC-3 cells, 24.81; in the data set with HPAC cells, 2228.00; in the data set on CAMA-1 cells, 12.46; in the data set with MDA-MB-468 cells it was 71.58; in the data set with WISH cells it was 1133.55. For the same molecule, the “MMF (average maximum relative mean fluorescence)” value turned out to be 35.94 in the data set with T98G cells, 1911.00 with BT-483 cells, 36.86 in the data set on SU.86.86 cells and 149.00 with Caov-4 cells. Further, the “MMF (maximum mean relative fluorescence)” value with KLE cells was determined as 27.48; in the data set on SK-OV-3 cells (SKOV3) it was 17.53; with OVCAR-3 cells, 21.19. Also, the antigen specific binding entry in the data set with SK-OV-3 cells (SK-OV-3, antigen negative cell line) is recorded as “no antigen specific binding”; in the data set with Colo205 cells, “no antigen specific binding”. Moreover, the Kd with T98G cells (read-out: Apparent Kd) was 0.178 nM.
